In the DeepSol protein solubility set:

assay: soluble on expression in E. coli; label from the status in PepcDB or PDB records

Sequence | soluble on expression in E. coli
MRALVVGAGIGGLVAARALRRAGLEVLVLEAHTYPGGLAGTFTHRGYRFDAGATLLSGFAPGGPMALVAEALGVCLPVEPFPEGFPLMEVHLPRGPLLRPVGREAEREAQRDFFGPRVLPFWRWQEERAKALLRLAPRLPWPPEREELLRLLALLPELFPLLPDLFLKAAHRAPQDPHFLRFLDAQLLIASQAEAKRTYALYAALALDLPHMGPALVPGGVGRVAEALAEGLPVRYKARAERLLLGEGRALAVEVAYGGRRRGEREVVEADLFVLDVPLAPLLGLPLKVPEDAWGAFVVHGVLPFRAPPPYFRQNAREKPFAFLSLRPEGEKTAFALSLHTPLALWEGLSPEEYGRLKARWGEMALSLGEALLPGLREAELLLFGTPRTYARFAGRAWVGGFPQTHPFRFPRVRPFPNVFRVGEGVFPGQSVPAAALSGLRAARLALEALGLAGSGGEARPSFPPFPLEHHHHHH | not soluble
MGSDKIHHHHHHMETRKLAVFVDLATTQNYSRSAERMFLSQSTISKYIMALERDWQVQLFERAHRQVTLTRIGQQLLPRAQAILREERQLQQVLAANTAHNAQSLVVQGLPSLAQYQAFHIITAFTKRYPEVKLQFSEASVDRLAHALDHTNVDIVFTRIFGDQPNNYDVLLNETDQFVVLVPKDDPLAQQAEISLSMLAHESILLLKDTIGEDNPLFSAFQKMHTPQMVYDGQRIDLILEMLNQGDGVSVVMARSFDLTGFDNIKAIPLTPTIRSQMAFMKRPDNHAAVVAKFWAFATKYSQSLSD | not soluble
MSRKMTGIVKTFDCKSGKGLITPSDGRKDVQVHISACRQHETEALIPGIRVEFCRINGLRGPTAANVYLS | not soluble
MSSSAPKYTTFQGSQNFRLRIVLATLSGKPIKIEKIRSGDLNPGLKDYEVSFLRLIESVTNGSVIEISYTGTTVIYRPGIIVGGASTHICPSSKPVGYFVEPMLYLAPFSKKKFSILFKGITASHNDAGIEAIKWGLMPVMEKFGVRECALHTLKRGSPPLGGGEVHLVVDSLIAQPITMHEIDRPIISSITGVAYSTRVSPSLVNRMIDGAKKVLKNLQCEVNITADVWRGENSGKSPGWGITLVAQSKQKGWSYFAEDIGDAGSIPEELGEKVACQLLEEISKSAAVGRNQLPLAIVYMVIGKEDIGRLRINKEQIDERFIILLRDIKKIFNTEVFLKPVDEADNEDMIATIKGIGFTNTSKKIA | not soluble
MGSDKIHHHHHHMSHISTADIEQVILPSSRDLGGFSVRRALPAPMRQMVGPFIFLDSFGPVRFGEGEGIDTRPHPHIGLSTLTYLLEGELTHRDSERYVQAIRPGEVNVMVAGAGIVHSERTPEHQRATGGKLAGLQSWIALPKKSEETAPLFQHLDAGSLPTVSGEGIGMKLLAGNLHGRQSPATVFSDLFAAEVHLEAGARYRIDGEHVERAIFVVAGALEIVGQDGNFGQDRLLVFKPGSEIVVKATGPARFLAFGGEPLPEKRFIRWNFVATDQERIRHAADLWRERGFPGVPDDDEFIPLPENFR | not soluble
MGHHHHHHSHMVTASRYYPQLMSLVGNVLRFLPAFVRMKQLISEHYVGAVMICDARIYSGSLLSPSYGWICDELMGGGGLHTMGTYIVDLLTHLTGRRAEKVHGLLKTFVRQNAAIRGIRHVTSDDFCFFQMLMGGGVCSTVTLNFNMPGAFVHEVMVVGSAGRLVARGADLYGQKNSATQEELLLRDSLAVGAGLPEQGPQDVPLLYLKGMVYMVQALRQSFQGQGDRRTWDRTPVSMAASFEDGLYMQSVVDAIKRSSRSGEWEAVEVLTEEPDTNQNLCEALQRNNL | not soluble
GMREMQIMSQPEQSRLDLFIDRMVSQRACLEHAIAQTAGLSGPVYELGLGNGRTYHHLRQHVQGREIYVFERAVASHPDSTPPEAQLILGDIRETLPATLERFGATASLVHADLGGHNREKNDRFARLISPLIEPHLAQGGLMVSSDRMYFEGLEELPLPPGAVVGRCFIYRRG | soluble
MKINIRDSTMVRPATETPITNLWNSNVDLVIPRFHTPSVYFYRPTGASNFFDPQVMKEALSKALVPFYPMAGRLKRDDDGRIEIDCNGAGVLFVVADTPSVIDDFGDFAPTLNLRQLIPEVDHSAGIHSFPLLVLQVTFFKCGGASLGVGMQHHAADGFSGLHFINTWSDMARGLDLTIPPFIDRTLLRARDPPQPAFHHVEYQPAPSMKIPLDPSKSGPENTTVSIFKLTRDQLVALKAKSKEDGNTVSYSSYEMLAGHVWRSVGKARGLPNDQETKLYIATDGRSRLRPQLPPGYFGNVIFTATPLAVAGDLLSKPTWYAAGQIHDFLVRMDDNYLRSALDYLEMQPDLSALVRGAHTYKCPNLGITSWVRLPIYDADFGWGRPIFMGPGGIPYEGLSFVLPSPTNDGSLSVAIALQSEHMKLFEKFLFEI | soluble
MGHHHHHHSHMLIPKTMGKMSPGHVRDLHGSPSHHRPRGPGGKSGFVGWAQGLCAVCSLGTWCPVSQLLQPWLKGANIELGLWLQRVEAPSIGSFHVMLSLWVQRCQELRFGNLCLDFRIYMETPGCPGKSLLQGQSPHGEPLLGQCGREMWGRAPTQSPCWGTA | not soluble
MIRPVDFQGFVVKGVESVQNVSQTLNQQTLVQQALSQHLLHQIQREQSSVKESNTAERAEVRTSTERRQRGFPQTRTHSSLKKKKTSIKEENKGLFMDVRTLEHHHHHH | not soluble
MAHHHHHHMSGENIKNLLAPQPTVDQGPYSGKYEKRMVDLPKPTYSTFYNKNKEFDSTHPRYFKQRDAVIGPIVNDTVDPKNFLRTGQGIKHIVPPVPHKKQHRKDFLDCGDIRKRTQGAMEPADQQQKESSGMGGMGSLANTNGVGGQAGDGIREHDMSSNDPERKGEQANGGDTGLRGTGNVESAVGSCDNKNNFQGAATGDNGRCHLNSLDRSRCKKDFVTSNIIDVDNMVPKRRKDQPEDPTRRKTFGRVPGYIGRVKEVIEKERMQLKAIGEARTNNRLERVGKFVYRLDEQERLNMISKLRAKLTEKGAELNRMPFAKDTYIQMKRKSDLEKRIKEIESSLEKLEKDAVFIYSDDPRVVHWTKDAAFEEARLFASD | not soluble
MSIATTPLHTALSLPQIQSFAASDMAAIDTLIHDRLTSDIVLINQIADHIICSGGKRLRPMLTMLAGHAIGPTGPHHHQLAAIIEFIHTATLLHDDVVDGSELRRSRSTANALWGNAPSVLVGDFLYSRSFQLMTELANLEVMQILAETTNRISEGEVLQLLHVHNPDTDETTYLSVIERKTAILFAAAAQLGALASHADTQTQTRMYEYGMQLGYAFQITDDVLDYTANNSQLGKNLGDDLAEGKATLPVIHAMTHSDAATCERLRMIISKGDSDAMPEVLNAIRTTGSLDYSRQRASAYAATAERALDGLPETEAVAALRGLARYAVQRTY | not soluble
MSLYNFLGKELKSPLIIGSGPLTYSAAGCKILSDAGAGAVVTKTIRKERAINPAPHMVRNTANALLNNEKWTDFEPEQWIDFEIPQMKRDGTVCIASIGHTIEESSELVEKVANAGADFIELVSYDYRDLIPMLKDAKERVNIPVIVKLPPMIDEIGDFAKKLEEAGADAITACDSVGPAFRIDIETGQPLLGGNGIGYLSGETIKPITLQRIYEIKKQVNIPIIGLGGCVSGDDALEMIMAGADFVGICSVVILKGAQVISKIHDDLKSNLNRLGYNTIENACGIVHNHMGDVNEREGHHHHHH | soluble
MGSDKIHHHHHHMSSDVQKGDNLETPGARDLLLQTASNIMREGDVVDISLSELSLRSGLNSALVKYYFGNKAGLLKALLDRDMENIVKSVDALLAKDDMSPEAKLRRHISKCIDTYYDYPYLNRLLMRLVRDSDEAEAKRIADQYLLPLHRAYNRFIGEGVKAGVFRPINPQLFYFTVTGAADRFFSARLVLKHCFDQDTLTEQLRDSYREHTVDFIMAGILAH | not soluble
MPSLLLLGAGHAHMTVMEAIPRLIERGHSVTVVGPGERHYYSGMGPGMLGGHYSPEDISFPVRQMVTQRGGTFITARATRIDPQRKHVVLDSGQELAYDVCSCNTGSHVPSSIVDGDATDVFPVKPIENLLAGRESIRRRASRGPVRIAVVGGGPAALEVAGNAAAALTQTGAQGNVAMYAGSSFLRRFPARVRELARKELQKARVKLHEGAYASAVHTGEVVLDNGERYEADIIFTALGVVPSPLFAASGLPVGKDGGLAVDAHLRCTEYDDIFGGGDCIWFTPQPLAKVGVYAVRQNPVLLHNLAARLEGGPLLTFSPGGEYLLIFNTGSGRGILHKAGFTFAGRLAFMVKDWIDRRFIRRFQPHLEHHHHHH | not soluble
MVFSDQQLFEKVVEILKPFDLSVVDYEEICDRMGESMRLGLQKSTNEKSSIKMFPSYVTKTPNGTETGNFLALDLGGTNYRVLSVTLEGKGKSPRIQERTYCIPAEKMSGSGTELFKYIAETLADFLENNGMKDKKFDLGFTFSFPCVQKGLTHATLVRWTKGFSADGVEGHNVAELLQTELDKRELNVKCVAVVNDTVGTLASCALEDPKCAVGLIVGTGTNVAYIEDSSKVELMDGVKEPEVVINTEWGAFGEKGELDCWRTQFDKSMDIDSLHPGKQLYEKMVSGMYLGELVRHIIVYLVEQKILFRGDLPERLKVRNSLLTRYLTDVERDPAHLLYNTHYMLTDDLHVPVVEPIDNRIVRYACEMVVKRAAYLAGAGIACILRRINRSEVTVGVDGSLYKFHPKFCERMTDMVDKLKPKNTRFCLRLSEDGSGKGAAAIAASCTRQN | soluble
MKGSRIELGDVTPHNIKQLKRLNQVIFPVSYNDKFYKDVLEVGELAKLAYFNDIAVGAVCCRVDHSQNQKRLYIMTLGCLAPYRRLGIGTKMLNHVLNICEKDGTFDNIYLHVQISNESAIDFYRKFGFEIIETKKNYYKRIEPADAHVLQKNLKVPSGQNADVQKTDN | soluble
MHSLDSYFQRTTAPKSAAQERREEFHEKVMRSADYIADKFVETVRPLVDEVADKLQSEMPEDMEGTAKRRLICELSRRFGVSISAFK | not soluble
MGSDKIHHHHHHMAILQLGMAFDADAFSASVIGIAADVGSHDSGVHRHGKGQLLYAPQGCITFAWEDAIGILPPTKAVWIPPHTPHRAVMTNVVAYRSLYFDCSRIVAPASVTMVDVNPLLKALIDKMAFWPWDTPEASMTHSCALFWEEFYAARCHSFRLTIPVDRRFHGFRQQLFRPEFLPPDIDSLAATIGASTKTVTRLFKRDTGMSYQEWRQQWRLLKAIELLSGALPVSEVGFRLGFSSDSAFIAFFRKQTGKTPRHFMQG | not soluble
MSLDIIIVGSGAGGLTTASNIKKHDKNAKVTVITSDNYIAYSPCAIPYVIGEEIADFESIIMHTPEDYKAKGIDVIVEAEVLDVVSDENKIIYKKDATETELKYDNLVLATGGTPFVPPIEGVTLGGVFKVRTIEDGRKITEWAKDTKNAVVAGAGAIGIEIAFGLKELGLDVTVVEMVPQVFPRALDPDMAETVQKYLEEQGIKVILEKPVGKIIGNDKVESVLVGEETIPAEMVIMSTGVRSNIELAKRAGCEIGRWAVLTNEKMQTSIPNIYAVGDCVEVIDAITMQNTLSPFGTTAVRQGKVAAKTIANIEAEIKPVLNSMVSKIGKLEIGGTGMTETAAKMNGIEIVLGYSKALTRARYYPGGKPIYIKMVADKNTKKIIGCQIISEERVAERVDAMSVAIFNGMTVEELANQEFCYAPPVSMVIDPIVFAAEDTLDKEGHHHHHH | soluble
ATDVAARGLDISGVTHVYNYDIPQDPESYVHRIGRTGRAGKEGMAITFVQPREMGYLRIVEETTKKRMQPLQAPTWDEAFAGQLRVATEKIQEAITEENLADYKTFANELLEKYDATDIAAAMLKMLAKEPDKTPVHITEERPLPSRGGGGYKGK | not soluble
